{"source": "paper PMC2702275", "about": "“TIPT2 and geminin interact with basal transcription factors to synergize in transcriptional regulation”", "molecules": {"B1": {"name": "AdMLPm4 (dsDNA)", "DNA 1": "AAGGGGTTCTATAAAAGGGGGTGGG", "DNA 2": "CCCACCCCCTTTTATAGAACCCCTT"}, "B2": {"name": "AdMLPm7 (dsDNA)", "DNA 1": "AAGGGGGGCTATAAAAGGTTGTGGG", "DNA 2": "CCCACAACCTTTTATAGCCCCCCTT"}, "B3": {"name": "AdMLP (-40 to -16) (dsDNA)", "DNA 1": "AAGGGGGGCTATAAAAGGGGGTGGG", "DNA 2": "CCCACCCCCTTTTATAGCCCCCCTT"}, "B4": {"name": "AdE4 (dsDNA)", "DNA 1": "GATCCGGAGTATATATAGGACCTTG", "DNA 2": "CAAGGTCCTATATATACTCCGGATC"}, "B5": {"name": "AdMLPm9 (dsDNA)", "DNA 1": "AAGGGGGGCTATAAAAGGGGGTTTT", "DNA 2": "AAAACCCCCTTTTATAGCCCCCCTT"}, "B6": {"name": "AdMLPm2 (dsDNA)", "DNA 1": "AATTGGGGCTATAAAAGGGGGTGGG", "DNA 2": "CCCACCCCCTTTTATAGCCCCAATT"}, "B7": {"name": "AdMLPm6 (dsDNA)", "DNA 1": "AAGGGGGGCTATAAAATTGGGTGGG", "DNA 2": "CCCACCCAATTTTATAGCCCCCCTT"}, "B8": {"name": "AdMLPm1 (dsDNA)", "DNA 1": "AAGGGGGGCTGTAAAAGGGGGTGGG", "DNA 2": "CCCACCCCCTTTTACAGCCCCCCTT"}, "B9": {"name": "AdMLPm5 (dsDNA)", "DNA 1": "AAGGGGGGTGATAAAAGGGGGTGGG", "DNA 2": "CCCACCCCCTTTTATCACCCCCCTT"}, "B10": {"name": "AdMLPm8 (dsDNA)", "DNA 1": "AAGGGGGGCTATAAAAGGGGTGGGG", "DNA 2": "CCCCACCCCTTTTATAGCCCCCCTT"}}, "key": {"[1]": {"target": "GST-TIPT2 (TATA-binding protein-like factor-interacting protein, isoform 2) (mouse) (UniProt Q6P926)"}, "[2]": {"target": "T1, GST-TIPT2 (TIPT isoform 2) (mouse, UniProt Q6P926 1-205)", "T1 sequence": "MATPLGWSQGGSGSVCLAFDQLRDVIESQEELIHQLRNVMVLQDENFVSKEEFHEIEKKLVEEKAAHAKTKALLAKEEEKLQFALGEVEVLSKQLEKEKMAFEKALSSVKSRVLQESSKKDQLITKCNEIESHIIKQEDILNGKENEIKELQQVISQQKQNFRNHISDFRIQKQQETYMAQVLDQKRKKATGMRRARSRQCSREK", "conditions": "protein: recombinant, tags: N-terminal GST"}, "TBP [3]": {"target": "T2, TBP (human, UniProt P20226 1-339)", "T2 sequence (P20226 whole entry)": "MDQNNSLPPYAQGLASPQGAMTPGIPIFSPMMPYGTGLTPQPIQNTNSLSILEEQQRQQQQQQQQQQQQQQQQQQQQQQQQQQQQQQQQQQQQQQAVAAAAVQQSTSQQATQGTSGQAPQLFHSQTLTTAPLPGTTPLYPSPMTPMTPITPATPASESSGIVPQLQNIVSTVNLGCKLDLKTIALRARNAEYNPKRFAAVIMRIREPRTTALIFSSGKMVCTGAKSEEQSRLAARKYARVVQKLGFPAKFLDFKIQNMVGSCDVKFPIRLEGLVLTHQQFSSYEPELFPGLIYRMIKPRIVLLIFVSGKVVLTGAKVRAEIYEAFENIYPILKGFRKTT", "conditions": "protein: recombinant"}, "[4]": {"target": "T1, GST-TIPT2 (TIPT isoform 2)", "conditions": "protein: recombinant; tags: N-terminal GST; label: radiolabel"}, "TBP [5]": {"target": "T2, TBP", "conditions": "protein: recombinant; label: radiolabel"}, "[6]": {"target": "T1, GST-TIPT2 (TIPT isoform 2)", "conditions": "protein: recombinant; tags: N-terminal GST"}}, "note": "Read-outs that look alike come from different tables or passages of the source.", "data": [{"molecule": "in vitro translated geminin (from UniProt O88513 1-206) (natural protein)", "values": [{"measurement": "luciferase reporter in U2OS cells: activation of the AdMLP, co-transfection of geminin with TIPT2", "setting": "[1]", "value": 11, "unit": "fold"}, {"measurement": "luciferase reporter in U2OS cells: activation of the AdMLP, triple transfection of TBP, TIPT2 and geminin", "setting": "[1]", "value": 16, "unit": "fold"}]}, {"molecule": "B1", "values": [{"measurement": "binding result", "setting": "[2]", "value": "binds"}]}, {"molecule": "B2", "values": [{"measurement": "binding result", "setting": "[2]", "value": "binds"}]}, {"molecule": "B3", "values": [{"measurement": "binding result", "setting": "[2]", "value": "binds"}, {"measurement": "binding result", "setting": "TBP [3]", "value": "binds"}]}, {"molecule": "B4", "values": [{"measurement": "binding result", "setting": "TBP [3]; label: radiolabel", "value": "binds"}, {"measurement": "binding result", "setting": "[4]", "value": "no binding"}]}, {"molecule": "B5", "values": [{"measurement": "binding result", "setting": "[2]", "value": "binds"}]}, {"molecule": "B6", "values": [{"measurement": "binding result", "setting": "[2]", "value": "binds"}]}, {"molecule": "B7", "values": [{"measurement": "binding result", "setting": "[2]", "value": "binds"}]}, {"molecule": "B8", "values": [{"measurement": "binding result", "setting": "[2]; label: radiolabel", "value": "binds"}, {"measurement": "binding result", "setting": "TBP [5]", "value": "no binding"}]}, {"molecule": "B9", "values": [{"measurement": "binding result", "setting": "[6]", "value": "binds"}]}, {"molecule": "B10", "values": [{"measurement": "binding result", "setting": "[2]", "value": "binds"}]}]}
